Experimental data taken from patent US20110262931A1 (published 2011).

Target: T1, mast cell carboxypeptidase purified from human skin (human, UniProt P15088 110-417)
T1 construct: also called human skin carboxypeptidase; carboxypeptidase purified from skin
T1 sequence (looked up): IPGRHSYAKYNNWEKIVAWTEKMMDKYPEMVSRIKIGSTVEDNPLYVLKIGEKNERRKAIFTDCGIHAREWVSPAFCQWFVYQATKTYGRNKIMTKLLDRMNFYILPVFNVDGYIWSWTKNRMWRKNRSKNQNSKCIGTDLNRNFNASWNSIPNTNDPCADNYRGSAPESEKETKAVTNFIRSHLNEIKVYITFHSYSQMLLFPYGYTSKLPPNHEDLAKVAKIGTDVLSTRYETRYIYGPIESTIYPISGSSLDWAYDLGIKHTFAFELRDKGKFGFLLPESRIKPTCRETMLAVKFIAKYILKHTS
Test: affinity chromatography on PCI-agarose
Description: Mast cell carboxypeptidase was purified from finely chopped extracts of human skin (obtained from macroscopically normal tissue at leg amputation) using a method adapted from that of Goldstein et al. (1989, ibid). […] After washing the column, carboxypeptidase was eluted with unconjugated PCI and dialysed to remove the inhibitor. The purity of the enzyme preparation was assessed by SDS-PAGE and silver staining (Pierce, Rockford, Ill., USA). Proteolytic activity was determined by monitoring the cleavage of […] hippuryl-Phe-Arg (Sigma) at 260 nm.

Does QQHADPICNKPCKTHDDCSGAWFCQACWNSARTCGPYVG (other, UniProt P01075 1-39, looked up, also called PCI) [potato tuber carboxypeptidase inhibitor] bind?
Result: binds
